Article PMC10192418, “High-affinity peptides developed against calprotectin and their application as synthetic ligands in diagnostic assays” (Nature Communications, 2023)

B1: linear peptide 3 [modified: 5(6)-carboxyfluorescein on the N-terminus; 5(6)-carboxyfluorescein on the N-terminus] / B-RCAL (BÜHLMANN recombinant calprotectin; His6-linker-S100A9-linker-S100A8) [human] (parent)
chain 1: RSPESVAFPMFQSHWYSG
chain 2: MTCKMSQLERNIETIINTFHQYSVKLGHPDTLNQGEFKELVRKDLQNFLKKENKNEKVIEHIMEDLDTNADKQLSFEEFIMLMARLTWASHEKMHEGDEGPGHHHKPGLGEGTPLEVLFQGPMLTELEKALNSIIDVYHKYSLIKGNFHAVYRDDLKKLLETECPQYIRKKGADVWFKELDINTDGAVNFQEFLILVIKMGVAAHKKSHEESHKE

Variants of: B1
Assay: fluorescence polarisation
Settings: with B-RCAL (BÜHLMANN recombinant calprotectin; His6-linker-S100A9-linker-S100A8) [human]; one measurement
chain 1 RSPESAAFPMFQSHWYSG [chain 1 V6A] showed a Kd of 39 nM. For chain 1 ASPESVAFPMFQSHWYSG [chain 1 R1A], the Kd was 32 nM. With chain 1 RSPESVGFPMFQSHWYSG [chain 1 A7G] the Kd was 29 nM. With chain 1 RSAESVAFPMFQSHWYSG [chain 1 P3A] the Kd was 28 nM. Variant chain 1 RSPESVAFPMFASHWYSG [chain 1 Q12A] has a Kd of 27 nM.
